This assay addresses purified 206 kDa rFn (recombinant fibronectin) (UniProt P02751). Nature of the assay: SPR; Biacore T200, 25°C; rFn immobilised on CM5 chip at 8000 RU; rRlpA (0.016-0.500 μM) injected at 30 μl/min in 10 mM Hepes pH 7.4, 150 mM NaCl, 3 mM EDTA, 0.05% P20; 1:1 Langmuir model. (In SPR one partner is held on a chip, and binding of the other changes the refractive index at the surface.)

purified 206 kDa rFn (recombinant fibronectin), sequence (P02751 32-2477): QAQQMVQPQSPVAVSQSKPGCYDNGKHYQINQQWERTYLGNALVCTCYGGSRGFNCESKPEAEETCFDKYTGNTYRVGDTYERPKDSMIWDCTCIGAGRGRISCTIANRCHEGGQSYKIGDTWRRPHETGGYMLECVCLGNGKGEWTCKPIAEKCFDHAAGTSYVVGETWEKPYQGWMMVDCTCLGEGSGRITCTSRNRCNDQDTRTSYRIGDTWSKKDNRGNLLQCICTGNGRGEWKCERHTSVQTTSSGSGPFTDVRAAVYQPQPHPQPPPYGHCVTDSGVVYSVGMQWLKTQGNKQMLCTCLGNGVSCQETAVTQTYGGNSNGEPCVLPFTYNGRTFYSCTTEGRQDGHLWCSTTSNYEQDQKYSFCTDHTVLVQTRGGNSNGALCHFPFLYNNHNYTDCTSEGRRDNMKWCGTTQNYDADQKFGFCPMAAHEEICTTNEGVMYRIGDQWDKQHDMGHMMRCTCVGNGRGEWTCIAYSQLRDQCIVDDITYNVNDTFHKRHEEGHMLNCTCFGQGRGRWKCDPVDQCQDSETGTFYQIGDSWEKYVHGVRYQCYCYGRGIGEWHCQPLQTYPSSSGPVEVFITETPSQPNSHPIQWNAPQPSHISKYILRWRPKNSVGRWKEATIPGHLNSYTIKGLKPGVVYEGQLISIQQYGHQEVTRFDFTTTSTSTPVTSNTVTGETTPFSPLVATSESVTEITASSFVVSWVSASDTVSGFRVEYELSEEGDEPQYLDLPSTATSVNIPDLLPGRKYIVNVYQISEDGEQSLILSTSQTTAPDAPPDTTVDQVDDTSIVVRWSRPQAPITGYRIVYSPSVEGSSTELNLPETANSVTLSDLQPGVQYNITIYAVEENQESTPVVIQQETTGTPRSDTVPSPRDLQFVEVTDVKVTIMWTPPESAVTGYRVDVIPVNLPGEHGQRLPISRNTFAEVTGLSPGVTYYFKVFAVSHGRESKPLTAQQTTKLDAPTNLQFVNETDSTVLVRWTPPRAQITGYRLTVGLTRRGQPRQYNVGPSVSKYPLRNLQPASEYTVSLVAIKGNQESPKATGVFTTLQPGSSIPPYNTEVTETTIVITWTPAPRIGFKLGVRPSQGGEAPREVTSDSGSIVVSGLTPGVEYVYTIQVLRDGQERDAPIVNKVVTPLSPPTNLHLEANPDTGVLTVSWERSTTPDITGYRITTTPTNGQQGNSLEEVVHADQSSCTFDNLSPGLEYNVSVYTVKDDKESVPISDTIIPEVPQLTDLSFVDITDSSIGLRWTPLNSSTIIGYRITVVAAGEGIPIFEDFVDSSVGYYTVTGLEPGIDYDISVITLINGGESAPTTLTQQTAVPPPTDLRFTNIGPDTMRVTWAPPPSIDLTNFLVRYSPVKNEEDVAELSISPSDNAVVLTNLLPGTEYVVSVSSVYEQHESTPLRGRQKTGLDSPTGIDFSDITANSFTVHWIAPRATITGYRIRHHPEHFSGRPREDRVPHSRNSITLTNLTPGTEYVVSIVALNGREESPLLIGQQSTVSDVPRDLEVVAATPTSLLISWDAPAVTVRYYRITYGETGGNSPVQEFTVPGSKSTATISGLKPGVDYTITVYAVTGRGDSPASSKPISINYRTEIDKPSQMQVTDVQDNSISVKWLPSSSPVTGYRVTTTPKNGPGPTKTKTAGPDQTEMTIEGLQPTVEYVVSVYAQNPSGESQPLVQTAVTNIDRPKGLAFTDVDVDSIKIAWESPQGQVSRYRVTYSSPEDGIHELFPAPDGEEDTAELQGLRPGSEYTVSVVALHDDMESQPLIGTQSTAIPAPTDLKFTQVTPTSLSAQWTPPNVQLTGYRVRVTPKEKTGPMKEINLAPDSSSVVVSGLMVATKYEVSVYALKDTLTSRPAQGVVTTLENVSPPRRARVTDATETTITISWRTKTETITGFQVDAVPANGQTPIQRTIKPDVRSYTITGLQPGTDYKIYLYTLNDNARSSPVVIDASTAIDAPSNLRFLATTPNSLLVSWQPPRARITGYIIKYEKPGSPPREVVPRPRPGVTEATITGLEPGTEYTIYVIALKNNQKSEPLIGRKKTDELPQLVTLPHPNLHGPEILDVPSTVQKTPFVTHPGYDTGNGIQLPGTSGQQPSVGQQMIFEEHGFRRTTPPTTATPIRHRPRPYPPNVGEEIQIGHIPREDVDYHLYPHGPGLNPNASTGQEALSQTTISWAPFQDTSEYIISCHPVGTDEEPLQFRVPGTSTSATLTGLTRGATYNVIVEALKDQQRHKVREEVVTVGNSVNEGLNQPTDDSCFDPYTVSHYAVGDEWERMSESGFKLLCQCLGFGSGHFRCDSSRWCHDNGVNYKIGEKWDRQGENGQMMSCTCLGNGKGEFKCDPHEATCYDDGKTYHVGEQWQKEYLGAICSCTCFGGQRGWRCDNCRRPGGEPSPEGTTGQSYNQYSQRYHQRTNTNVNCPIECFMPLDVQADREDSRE

Turning to “GST-tagged RlpA recombinant protein (rare lipoprotein A of Glaesserella parasuis serotype 4) (natural protein; other documents disagree on this pair)”, the Kd (as a rule, a measure of binding affinity in units of concentration) is 1.6 nM.

For the origin of these results see publication PMC11392263.
